Target: T1, mouse LPL (p.R324A) (mouse, UniProt P11152 28-474, p.R324A)
T1 sequence (looked up): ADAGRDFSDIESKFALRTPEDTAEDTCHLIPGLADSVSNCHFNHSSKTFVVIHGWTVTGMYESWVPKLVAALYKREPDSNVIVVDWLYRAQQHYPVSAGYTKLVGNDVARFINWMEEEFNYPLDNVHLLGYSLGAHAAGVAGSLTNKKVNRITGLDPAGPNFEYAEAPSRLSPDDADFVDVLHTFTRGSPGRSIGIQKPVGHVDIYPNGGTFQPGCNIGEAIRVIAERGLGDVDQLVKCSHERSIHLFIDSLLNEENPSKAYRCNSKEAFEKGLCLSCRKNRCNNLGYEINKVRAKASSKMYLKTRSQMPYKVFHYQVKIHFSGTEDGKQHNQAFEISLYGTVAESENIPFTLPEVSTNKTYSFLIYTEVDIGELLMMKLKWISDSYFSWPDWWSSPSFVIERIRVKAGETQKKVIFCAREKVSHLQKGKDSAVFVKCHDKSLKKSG
Assay: native gel or EMSA

B1: recombinant human GPIHBP1, soluble (residues 1-131) (domain or fragment, UniProt Q8IV16 21-151, looked up)
chain: QTQQEEEEEDEDHGPDDYDEEDEDEVEEEETNRLPGGRSRVLLRCYTCKSLPRDERCNLTQNCSHGQTCTTLIAHGNTESGLLTTHSTWCTDSCQPITKTVEGTQVTMTCCQSSLCNVPPWQSSRVQDPTG
binding result: binds

Reference: PMC11017283 (Journal of Lipid Research, 2024)
